Measurements published in patent US20210139548A1 (published 2021).
*1 amine or outer side, *2 acyl side, *3 side chain or, on linkers, in order; H or OH if unused. Side-chain parts run from the residue outwards. The star is where a group is joined. C18 diacid = O=C(O)CCCCCCCCCCCCCCCCC(=O)*; γGlu = O=C(O)[C@H](CCC(=O)[*:2])N[*:1]; Isovaleryl = CC(C)CC(=O)*; AEEA = NCCOCCOCC(=O)O

T1: human neuropeptide Y2 receptor (human, UniProt P49146 1-381)
T1 construct: whole, on cells; also called hNPY2 receptor; hNPY2-R
T1 sequence (looked up): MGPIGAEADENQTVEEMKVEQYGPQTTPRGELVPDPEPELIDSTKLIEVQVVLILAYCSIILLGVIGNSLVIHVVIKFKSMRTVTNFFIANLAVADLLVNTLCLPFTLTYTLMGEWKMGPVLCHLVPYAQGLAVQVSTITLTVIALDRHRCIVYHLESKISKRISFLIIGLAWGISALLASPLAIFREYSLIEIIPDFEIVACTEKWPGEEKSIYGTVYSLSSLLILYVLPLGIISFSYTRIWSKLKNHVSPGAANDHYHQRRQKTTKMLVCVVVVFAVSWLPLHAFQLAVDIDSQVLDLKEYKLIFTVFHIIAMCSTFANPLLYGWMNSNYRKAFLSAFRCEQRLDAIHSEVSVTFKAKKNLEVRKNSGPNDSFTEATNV


Target: T1, human neuropeptide Y2 receptor
Assay: radioligand competition (125I-PYY(1-36)), hNPY2R membranes
Outline: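 Commercial human Y2 receptor membranes (0.5 μg protein/well) were incubated with peptide for 2 h at room temperature in 50 mM HEPES, 5 mM MgCl₂, 1 mM CaCl₂, pH 7.4, with 0.2% ovalbumin. Bound radioligand was separated on PEI-soaked GF/C filters and counted by scintillation, and IC₅₀ came from nonlinear sigmoidal regression.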

Ki [nM] | Binder
1.21 | Isovaleryl-APEK([AEEA-AEEA-γGlu-C18 diacid])PEEAASPEETQRYYVSLRHYYNWLTRQRY-NH2 (SMILES CC(C)CC(=O)N[C@@H](C)C(=O)N1CCC[C@H]1C(=O)N[C@@H](CCC(=O)O)C(=O)N[C@@H](CCCCNC(=O)COCCOCCNC(=O)COCCOCCNC(=O)CC[C@H](NC(=O)CCCCCCCCCCCCCCCCC(=O)O)C(=O)O)C(=O)N1CCC[C@H]1C(=O)N[C@@H](CCC(=O)O)C(=O)N[C@@H](CCC(=O)O)C(=O)N[C@@H](C)C(=O)N[C@@H](C)C(=O)N[C@@H](CO)C(=O)N1CCC[C@H]1C(=O)N[C@@H](CCC(=O)O)C(=O)N[C@@H](CCC(=O)O)C(=O)N[C@H](C(=O)N[C@@H](CCC(N)=O)C(=O)N[C@@H](CCCNC(=N)N)C(=O)N[C@@H](Cc1ccc(O)cc1)C(=O)N[C@@H](Cc1ccc(O)cc1)C(=O)N[C@H](C(=O)N[C@@H](CO)C(=O)N[C@@H](CC(C)C)C(=O)N[C@@H](CCCNC(=N)N)C(=O)N[C@@H](Cc1c[nH]cn1)C(=O)N[C@@H](Cc1ccc(O)cc1)C(=O)N[C@@H](Cc1ccc(O)cc1)C(=O)N[C@@H](CC(N)=O)C(=O)N[C@@H](Cc1c[nH]c2ccccc12)C(=O)N[C@@H](CC(C)C)C(=O)N[C@H](C(=O)N[C@@H](CCCNC(=N)N)C(=O)N[C@@H](CCC(N)=O)C(=O)N[C@@H](CCCNC(=N)N)C(=O)N[C@@H](Cc1ccc(O)cc1)C(N)=O)[C@@H](C)O)C(C)C)[C@@H](C)O) [Compound 226]
2.84 | Isovaleryl-APEK([AEEA-AEEA-γGlu-C18 diacid])PEEDASPEELQRYYVSARHYYNWLTRQRY-NH2 (SMILES CC(C)CC(=O)N[C@@H](C)C(=O)N1CCC[C@H]1C(=O)N[C@@H](CCC(=O)O)C(=O)N[C@@H](CCCCNC(=O)COCCOCCNC(=O)COCCOCCNC(=O)CC[C@H](NC(=O)CCCCCCCCCCCCCCCCC(=O)O)C(=O)O)C(=O)N1CCC[C@H]1C(=O)N[C@@H](CCC(=O)O)C(=O)N[C@@H](CCC(=O)O)C(=O)N[C@@H](CC(=O)O)C(=O)N[C@@H](C)C(=O)N[C@@H](CO)C(=O)N1CCC[C@H]1C(=O)N[C@@H](CCC(=O)O)C(=O)N[C@@H](CCC(=O)O)C(=O)N[C@@H](CC(C)C)C(=O)N[C@@H](CCC(N)=O)C(=O)N[C@@H](CCCNC(=N)N)C(=O)N[C@@H](Cc1ccc(O)cc1)C(=O)N[C@@H](Cc1ccc(O)cc1)C(=O)N[C@H](C(=O)N[C@@H](CO)C(=O)N[C@@H](C)C(=O)N[C@@H](CCCNC(=N)N)C(=O)N[C@@H](Cc1c[nH]cn1)C(=O)N[C@@H](Cc1ccc(O)cc1)C(=O)N[C@@H](Cc1ccc(O)cc1)C(=O)N[C@@H](CC(N)=O)C(=O)N[C@@H](Cc1c[nH]c2ccccc12)C(=O)N[C@@H](CC(C)C)C(=O)N[C@H](C(=O)N[C@@H](CCCNC(=N)N)C(=O)N[C@@H](CCC(N)=O)C(=O)N[C@@H](CCCNC(=N)N)C(=O)N[C@@H](Cc1ccc(O)cc1)C(N)=O)[C@@H](C)O)C(C)C) [Compound 229]
0.81 | Isovaleryl-APAK([AEEA-AEEA-γGlu-C18 diacid])PPEDASPEELQRYYVELRHYYNWLTRQRY-NH2 (SMILES CC(C)CC(=O)N[C@@H](C)C(=O)N1CCC[C@H]1C(=O)N[C@@H](C)C(=O)N[C@@H](CCCCNC(=O)COCCOCCNC(=O)COCCOCCNC(=O)CC[C@H](NC(=O)CCCCCCCCCCCCCCCCC(=O)O)C(=O)O)C(=O)N1CCC[C@H]1C(=O)N1CCC[C@H]1C(=O)N[C@@H](CCC(=O)O)C(=O)N[C@@H](CC(=O)O)C(=O)N[C@@H](C)C(=O)N[C@@H](CO)C(=O)N1CCC[C@H]1C(=O)N[C@@H](CCC(=O)O)C(=O)N[C@@H](CCC(=O)O)C(=O)N[C@@H](CC(C)C)C(=O)N[C@@H](CCC(N)=O)C(=O)N[C@@H](CCCNC(=N)N)C(=O)N[C@@H](Cc1ccc(O)cc1)C(=O)N[C@@H](Cc1ccc(O)cc1)C(=O)N[C@H](C(=O)N[C@@H](CCC(=O)O)C(=O)N[C@@H](CC(C)C)C(=O)N[C@@H](CCCNC(=N)N)C(=O)N[C@@H](Cc1c[nH]cn1)C(=O)N[C@@H](Cc1ccc(O)cc1)C(=O)N[C@@H](Cc1ccc(O)cc1)C(=O)N[C@@H](CC(N)=O)C(=O)N[C@@H](Cc1c[nH]c2ccccc12)C(=O)N[C@@H](CC(C)C)C(=O)N[C@H](C(=O)N[C@@H](CCCNC(=N)N)C(=O)N[C@@H](CCC(N)=O)C(=O)N[C@@H](CCCNC(=N)N)C(=O)N[C@@H](Cc1ccc(O)cc1)C(N)=O)[C@@H](C)O)C(C)C) [Compound 232]
25.1 | Isovaleryl-APEK([AEEA-AEEA-γGlu-C18 diacid])TEEEASPEELQRYYVSLRHYYNWLTRQRY-NH2 (SMILES CC(C)CC(=O)N[C@@H](C)C(=O)N1CCC[C@H]1C(=O)N[C@@H](CCC(=O)O)C(=O)N[C@@H](CCCCNC(=O)COCCOCCNC(=O)COCCOCCNC(=O)CC[C@H](NC(=O)CCCCCCCCCCCCCCCCC(=O)O)C(=O)O)C(=O)N[C@H](C(=O)N[C@@H](CCC(=O)O)C(=O)N[C@@H](CCC(=O)O)C(=O)N[C@@H](CCC(=O)O)C(=O)N[C@@H](C)C(=O)N[C@@H](CO)C(=O)N1CCC[C@H]1C(=O)N[C@@H](CCC(=O)O)C(=O)N[C@@H](CCC(=O)O)C(=O)N[C@@H](CC(C)C)C(=O)N[C@@H](CCC(N)=O)C(=O)N[C@@H](CCCNC(=N)N)C(=O)N[C@@H](Cc1ccc(O)cc1)C(=O)N[C@@H](Cc1ccc(O)cc1)C(=O)N[C@H](C(=O)N[C@@H](CO)C(=O)N[C@@H](CC(C)C)C(=O)N[C@@H](CCCNC(=N)N)C(=O)N[C@@H](Cc1c[nH]cn1)C(=O)N[C@@H](Cc1ccc(O)cc1)C(=O)N[C@@H](Cc1ccc(O)cc1)C(=O)N[C@@H](CC(N)=O)C(=O)N[C@@H](Cc1c[nH]c2ccccc12)C(=O)N[C@@H](CC(C)C)C(=O)N[C@H](C(=O)N[C@@H](CCCNC(=N)N)C(=O)N[C@@H](CCC(N)=O)C(=O)N[C@@H](CCCNC(=N)N)C(=O)N[C@@H](Cc1ccc(O)cc1)C(N)=O)[C@@H](C)O)C(C)C)[C@@H](C)O) [Compound 238]
12.3 | Isovaleryl-APEK([AEEA-AEEA-γGlu-C18 diacid])AEEDASPEELEQYYVSLRHYYNWLTRQRY-NH2 (SMILES CC(C)CC(=O)N[C@@H](C)C(=O)N1CCC[C@H]1C(=O)N[C@@H](CCC(=O)O)C(=O)N[C@@H](CCCCNC(=O)COCCOCCNC(=O)COCCOCCNC(=O)CC[C@H](NC(=O)CCCCCCCCCCCCCCCCC(=O)O)C(=O)O)C(=O)N[C@@H](C)C(=O)N[C@@H](CCC(=O)O)C(=O)N[C@@H](CCC(=O)O)C(=O)N[C@@H](CC(=O)O)C(=O)N[C@@H](C)C(=O)N[C@@H](CO)C(=O)N1CCC[C@H]1C(=O)N[C@@H](CCC(=O)O)C(=O)N[C@@H](CCC(=O)O)C(=O)N[C@@H](CC(C)C)C(=O)N[C@@H](CCC(=O)O)C(=O)N[C@@H](CCC(N)=O)C(=O)N[C@@H](Cc1ccc(O)cc1)C(=O)N[C@@H](Cc1ccc(O)cc1)C(=O)N[C@H](C(=O)N[C@@H](CO)C(=O)N[C@@H](CC(C)C)C(=O)N[C@@H](CCCNC(=N)N)C(=O)N[C@@H](Cc1c[nH]cn1)C(=O)N[C@@H](Cc1ccc(O)cc1)C(=O)N[C@@H](Cc1ccc(O)cc1)C(=O)N[C@@H](CC(N)=O)C(=O)N[C@@H](Cc1c[nH]c2ccccc12)C(=O)N[C@@H](CC(C)C)C(=O)N[C@H](C(=O)N[C@@H](CCCNC(=N)N)C(=O)N[C@@H](CCC(N)=O)C(=O)N[C@@H](CCCNC(=N)N)C(=O)N[C@@H](Cc1ccc(O)cc1)C(N)=O)[C@@H](C)O)C(C)C) [Compound 227]
1.95 | Isovaleryl-APAK([AEEA-AEEA-γGlu-C18 diacid])PEEEASPEELQRYYVSLRHYYNWLTRQRY-NH2 (SMILES CC(C)CC(=O)N[C@@H](C)C(=O)N1CCC[C@H]1C(=O)N[C@@H](C)C(=O)N[C@@H](CCCCNC(=O)COCCOCCNC(=O)COCCOCCNC(=O)CC[C@H](NC(=O)CCCCCCCCCCCCCCCCC(=O)O)C(=O)O)C(=O)N1CCC[C@H]1C(=O)N[C@@H](CCC(=O)O)C(=O)N[C@@H](CCC(=O)O)C(=O)N[C@@H](CCC(=O)O)C(=O)N[C@@H](C)C(=O)N[C@@H](CO)C(=O)N1CCC[C@H]1C(=O)N[C@@H](CCC(=O)O)C(=O)N[C@@H](CCC(=O)O)C(=O)N[C@@H](CC(C)C)C(=O)N[C@@H](CCC(N)=O)C(=O)N[C@@H](CCCNC(=N)N)C(=O)N[C@@H](Cc1ccc(O)cc1)C(=O)N[C@@H](Cc1ccc(O)cc1)C(=O)N[C@H](C(=O)N[C@@H](CO)C(=O)N[C@@H](CC(C)C)C(=O)N[C@@H](CCCNC(=N)N)C(=O)N[C@@H](Cc1c[nH]cn1)C(=O)N[C@@H](Cc1ccc(O)cc1)C(=O)N[C@@H](Cc1ccc(O)cc1)C(=O)N[C@@H](CC(N)=O)C(=O)N[C@@H](Cc1c[nH]c2ccccc12)C(=O)N[C@@H](CC(C)C)C(=O)N[C@H](C(=O)N[C@@H](CCCNC(=N)N)C(=O)N[C@@H](CCC(N)=O)C(=O)N[C@@H](CCCNC(=N)N)C(=O)N[C@@H](Cc1ccc(O)cc1)C(N)=O)[C@@H](C)O)C(C)C) [Compound 234]
